Assay results published in patent publication US20210401931A1, “METHODS AND MATERIALS FOR TREATING CANCER” (Mayo Foundation for Medical Education and Research, priority 2018, published 2021).

Assays:
[1] = tested on: NFκB target genes; assay: Expression of NFκB target genes in PC-3 cells (RNA-seq, RT-qPCR); type: cell-based, human; details: PC-3 cells, IKK-16 5 μM or ACHP 20 μM, 24 hours
Procedure: FIGS. 4A-G. RB globally regulates NFkB transcriptional program in cells. […] (F, G) PC-3 cell were treated with or without palbociclib (5 μM) for 24 hours or PC-3 cells were infected with lentivirus expressing control shRNA or RB-specific shRNA following puromycin selection after 48 hours infection. Cells were harvested for RT-qPCR (F) and ChIP-qPCR (G) analysis of p65 binding at the promotor of PD-L1, GADD45B, NR4A2, and CD83. All data were shown as mean values±SD (n=3). * P<0.05, ** P<0.01, ***P<0.001.
FIGS. 16A-K. Mutual exclusivity of PTEN and MAP3K7 gene deletion in human cancers and CDK4/6 inhibition-mediated blockage of MAP3K7 deficiency-induced death of PTEN-null cells. (A) Genetic alterations of MAP3K7 and PTEN genes in the TCGA prostate cancer dataset. (B) Genetic alterations of MAP3K7 and PTEN genes in lymphoid neoplasm diffuse large B-cell lymphoma, stomach adenocarcinoma, pancreatic cancer, liver cancer, bladder urothelial carcinoma, and lung adenocarcinoma. (C-E) PC-3 cells were infected with lentivirus expressing control or MAP3K7-specific shRNAs. 72 hours after infection, cells were harvested for western blotting (C), cell growth assay (D), and colony formation assay (E). All data were shown as mean values±SD (n=3). ns, not significant, * P<0.05 comparing to the shControl group. (F-H) LNCaP-RF prostate cancer cells were infected with lentivirus expressing control or MAP3K7-specific shRNAs. 72 hours after infection, cells were harvested for western blotting (F), cell growth assay (G), and colony formation assay (H). All data are shown as mean values±SD (n=3). ns, not significant, * P<0.05 comparing to the shControl group. (I-K) PC-3 cells were infected with lentivirus expressing control, MAP3K7 or CHD1-specific shRNAs. 72 hours after infection, cells were treated with DMSO or palbociclib (5 μM). […]
FIGS. 17A-I. Negative regulation of MAP3K7-IKK-NFκB and CHD1-NFκB signaling by RB. […] 72 hours after infection and puromycin selection, cells were injected s.c. into the right flank of NSG mice, and tumor growth was measured for 21 days. […]

[2] = molecular target: T1, p65 (Homo sapiens, UniProt Q04206); assay: Co-IP of p65 by SFB-tagged RL peptide in 293T cells; type: binding; details: 48 hours after transfection
T1 construct: endogenous in cells; host or cells: 293T
Procedure: FIGS. 10A-G. (A) Schematic diagram depicting a set of RB-N recombinant protein constructs. Western blot analysis of p65 proteins in PC-3 cells whole cell lysate pulled down by GST or GST-RB-N recombinant proteins. Stars indicate expected molecular weight. (B) Western blot analysis of in vitro transcribed and translated p65 proteins pulled down by GST or GST-RB recombinant proteins. Stars indicate expected molecular weight. (C) Western blot analysis of WCL and co-IP samples in 293T cells 48 h after transfected with indicated constructs. (D) Schematic diagram depicting an evolutionally conserved R-linker region in the N-terminal of RB. FIG. 10D discloses SEQ ID NOS 265 and 271-274, respectively, in order of appearance. (E) Western blot analysis of WCL and co-IP samples in 293T cells 48 hours after transfected with indicated constructs. (F) PC-3 cells were transfected with indicated plasmids. Western blot analysis of HA-RB proteins in PC-3 whole cell lysate pulled down by GST or GST-p65 recombinant proteins. Stars indicate expected molecular weight. (G) Schematic diagram depicting fully positively charged RB-N allows otherwise negatively charged by S249/T252 phosphorylation to bind to negatively charged 166FSLMV170 motif (SEQ ID NO: 286) in EID1. FIG. 10G discloses SEQ ID NOS 265-266 and 275, respectively, in order of appearance. […]

[3] = molecular target: T2, p65 NFκB protein (human, UniProt Q04206 1-551); assay: co-IP from 293T cells transfected with SFB-tagged constructs (FIG. 10C)
T2 construct: The same entry is used for endogenous p65 and for in vitro translated p65; which one stood in the assay is told under assay; also called endogenous p65; in vitro transcribed and translated p65 (pCMV4 p65)

[4] = molecular target: T2, p65 NFκB protein; assay: GST pull down from PC-3 whole cell lysate, western blot
Procedure: Cells were lysed with IP buffer (50 mM Tris-HCl, pH 7.4, 150 mM NaCl, 1% Triton X-100, 1% sodium deoxycholate, and 1% protease inhibitor cocktails) on ice for more than 30 minutes. GST fusion proteins were immobilized on glutathione-Sepharose beads (GE Healthcare Lifesciences). After washing with lysis buffer, the beads were incubated with cell lysates overnight at 4° C. overnight. The beads were then washed six times with binding buffer and re-suspended in sample buffer. The bound proteins were subjected to western blotting analysis.

[5] = molecular target: T3, retinoblastoma protein RB (endogenous) (human, UniProt P06400 2-928); assay: co-IP of endogenous proteins in PC-3 cells, western blot (FIG. 2A)
T3 construct: Endogenous protein of cell lysates, phosphorylation state as in the cells; also called RB1; endogenous RB
T3 sequence (looked up): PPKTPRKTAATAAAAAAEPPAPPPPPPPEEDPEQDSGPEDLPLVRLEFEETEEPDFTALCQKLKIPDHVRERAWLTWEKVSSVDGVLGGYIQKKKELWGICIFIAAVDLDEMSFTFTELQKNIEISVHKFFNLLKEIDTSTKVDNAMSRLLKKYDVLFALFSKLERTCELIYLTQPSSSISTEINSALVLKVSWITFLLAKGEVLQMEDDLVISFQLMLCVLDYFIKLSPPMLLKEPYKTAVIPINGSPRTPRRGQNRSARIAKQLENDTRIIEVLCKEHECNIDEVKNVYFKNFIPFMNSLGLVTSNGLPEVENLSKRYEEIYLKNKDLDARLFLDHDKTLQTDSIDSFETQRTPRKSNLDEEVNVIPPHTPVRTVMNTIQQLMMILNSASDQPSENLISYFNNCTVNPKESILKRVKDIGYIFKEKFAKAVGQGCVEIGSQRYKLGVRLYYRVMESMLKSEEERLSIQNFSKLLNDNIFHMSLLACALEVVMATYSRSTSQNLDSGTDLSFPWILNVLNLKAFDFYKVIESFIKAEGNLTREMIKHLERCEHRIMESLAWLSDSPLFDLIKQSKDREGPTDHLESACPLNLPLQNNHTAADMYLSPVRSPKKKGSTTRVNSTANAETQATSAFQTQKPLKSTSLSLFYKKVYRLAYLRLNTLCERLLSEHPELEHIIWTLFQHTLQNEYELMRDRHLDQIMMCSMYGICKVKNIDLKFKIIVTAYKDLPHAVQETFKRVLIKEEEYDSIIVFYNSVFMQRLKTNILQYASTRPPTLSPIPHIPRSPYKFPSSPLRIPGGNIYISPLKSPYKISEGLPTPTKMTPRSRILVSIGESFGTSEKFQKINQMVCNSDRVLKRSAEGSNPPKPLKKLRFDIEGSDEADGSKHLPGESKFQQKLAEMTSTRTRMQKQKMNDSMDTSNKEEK

[6] = molecular target: T2, p65 NFκB protein; assay: in vitro protein binding assay with in vitro transcribed and translated p65 (FIG. 10A)

T2 sequence (Q04206 whole entry): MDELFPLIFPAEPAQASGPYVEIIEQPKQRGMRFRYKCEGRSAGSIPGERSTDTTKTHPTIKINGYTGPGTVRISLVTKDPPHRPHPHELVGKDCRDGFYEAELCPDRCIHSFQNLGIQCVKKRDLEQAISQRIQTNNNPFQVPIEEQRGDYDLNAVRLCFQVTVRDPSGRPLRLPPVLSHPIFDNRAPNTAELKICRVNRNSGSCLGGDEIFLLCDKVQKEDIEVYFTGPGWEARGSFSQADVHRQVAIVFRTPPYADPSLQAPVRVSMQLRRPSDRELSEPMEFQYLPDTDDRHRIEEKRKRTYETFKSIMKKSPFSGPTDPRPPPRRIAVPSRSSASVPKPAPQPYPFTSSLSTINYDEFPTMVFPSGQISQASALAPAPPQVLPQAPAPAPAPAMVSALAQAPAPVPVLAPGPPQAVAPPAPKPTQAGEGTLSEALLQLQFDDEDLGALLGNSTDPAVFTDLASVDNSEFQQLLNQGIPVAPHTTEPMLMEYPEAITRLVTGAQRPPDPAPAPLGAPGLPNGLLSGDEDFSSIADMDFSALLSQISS
T1 sequence (Q04206 whole entry): as above

Molecule: N#Cc1c(C2CCNCC2)cc(-c2c(O)cccc2OCC2CC2)nc1N [ACHP]
- NFκB target gene expression [1]: decreased

Molecule: RL-S249A/T252A: unphosphorylable (phosphorylation-resistant) mutant of the RL peptide (NGAPRAPRRGQNRSARIAKQL; left off: small tags and cut ends) [reference compound]
- immunoprecipitation of p65 by SFB-tagged RL peptide [2]: largely diminished

Molecule: O=C(c1ccc(Nc2nccc(-c3cc4ccccc4s3)n2)cc1)N1CCC(N2CCCC2)CC1 [IKK-16]
- NFκB target gene expression [1]: decreased

B1: SFB-tagged RB-N (other, human, UniProt P06400 1-379, looked up, not shown: small tags and cut ends)
chain: MPPKTPRKTAATAAAAAAEPPAPPPPPPPEEDPEQDSGPEDLPLVRLEFEETEEPDFTALCQKLKIPDHVRERAWLTWEKVSSVDGVLGGYIQKKKELWGICIFIAAVDLDEMSFTFTELQKNIEISVHKFFNLLKEIDTSTKVDNAMSRLLKKYDVLFALFSKLERTCELIYLTQPSSSISTEINSALVLKVSWITFLLAKGEVLQMEDDLVISFQLMLCVLDYFIKLSPPMLLKEPYKTAVIPINGSPRTPRRGQNRSARIAKQLENDTRIIEVLCKEHECNIDEVKNVYFKNFIPFMNSLGLVTSNGLPEVENLSKRYEEIYLKNKDLDARLFLDHDKTLQTDSIDSFETQRTPRKSNLDEEVNVIPPHTPVRTVM
notes: Expressed in mammalian cells (293T, PANC-1, H1299, SK-Hep1)
- binding result [3]: binds

B2: GST-RB-M (other, human, UniProt P06400 380-792, looked up)
chain: NTIQQLMMILNSASDQPSENLISYFNNCTVNPKESILKRVKDIGYIFKEKFAKAVGQGCVEIGSQRYKLGVRLYYRVMESMLKSEEERLSIQNFSKLLNDNIFHMSLLACALEVVMATYSRSTSQNLDSGTDLSFPWILNVLNLKAFDFYKVIESFIKAEGNLTREMIKHLERCEHRIMESLAWLSDSPLFDLIKQSKDREGPTDHLESACPLNLPLQNNHTAADMYLSPVRSPKKKGSTTRVNSTANAETQATSAFQTQKPLKSTSLSLFYKKVYRLAYLRLNTLCERLLSEHPELEHIIWTLFQHTLQNEYELMRDRHLDQIMMCSMYGICKVKNIDLKFKIIVTAYKDLPHAVQETFKRVLIKEEEYDSIIVFYNSVFMQRLKTNILQYASTRPPTLSPIPHIPRSPYKF
notes: domain: RB-M; not shown: glutathione S-transferase (GST) tag of the fusion
- binding result [4]: no binding

B3: p50 subunit of NFκB (other, human, UniProt P19838 1-433, looked up)
chain: MAEDDPYLGRPEQMFHLDPSLTHTIFNPEVFQPQMALPTDGPYLQILEQPKQRGFRFRYVCEGPSHGGLPGASSEKNKKSYPQVKICNYVGPAKVIVQLVTNGKNIHLHAHSLVGKHCEDGICTVTAGPKDMVVGFANLGILHVTKKKVFETLEARMTEACIRGYNPGLLVHPDLAYLQAEGGGDRQLGDREKELIRQAALQQTKEMDLSVVRLMFTAFLPDSTGSFTRRLEPVVSDAIYDSKAPNASNLKIVRMDRTAGCVTGGEEIYLLCDKVQKDDIQIRFYEEEENGGVWEGFGDFSPTDVHRQFAIVFKTPKYKDINITKPASVFVQLRRKSDLETSEPKPFLYYPEIKDKEEVQRKRQKLMPNFSDSFGGGSGAGAGGGGMFGSGGGGGGTGSTGPGYSFPHYGFPTYGGITFHPGTTKSNAGMKHG
- binding result [5]: no binding

B4: GST-RB-NΔ1 (N-terminal portion of RB-N, amino acids 1-266) (other, not shown: a dimerising Fc or GST; small tags and cut ends)
chain: MPPKTPRKTAATAAAAAAEPPAPPPPPPPEEDPEQDSGPEDLPLVRLEFEETEEPDFTALCQKLKIPDHVRERAWLTWEKVSSVDGVLGGYIQKKKELWGICIFIAAVDLDEMSFTFTELQKNIEISVHKFFNLLKEIDTSTKVDNAMSRLLKKYDVLFALFSKLERTCELIYLTQPSSSISTEINSALVLKVSWITFLLAKGEVLQMEDDLVISFQLMLCVLDYFIKLSPPMLLKEPYKTAVIPINGSPRTPRRGQNRSARIAKQ
- binding result [6]: binds
